Test results taken from the RNAGym collection of RNA variant scans (doi:10.7554/elife.90254).

B1: LINE1-full (parent)
chain: UACGUAGGUGGUUUUCCCCUGAUAGUGCUAAGGGGGCCUGGAAGUUUGGACUGGGCAGAGCUCAACACAGCGUGGCAAAGUGGCUGUGGCUAGACUGCCUCUCUGGAUUCCUCGUCACUCAGCAGGGCAUCUCUGAGAGAAAUGCC

Variants of: B1
Assay: self-cleavage, relative activity (ratio to wild type); higher = more cleavage; in vitro, sequencing; the parent is a self-cleaving ribozyme

Variant	self-cleavage
A50U U81A	1.1
A50U U81G	0.74
U52C G114A	1.24
U52A A59U	0.4
U52A A59G	0.03
U52C G88A	0.04
U52A U81C	1.51
U52A U81G	1.63
G54U A65G	0.03
U52A G88A	0.12
A50U U85A	0.05
G54A U62A	0.01
G54A U62C	0.07
U52G A69U	0.1
G54A A69G	0.18
C51A U100C	1.93
U52C A121C	1.92
U52C A121G	1.41
G53A G126A	1.23
G53A G126U	1.31
G55A U112C	0.14
G54U U108C	0.36
G54A A92G	0.04
G54U A78G	0.44

Variant	self-cleavage
G54A A65U	0.1
G54A A65G	0.02
U52C C101G	1.31
G53U U134A	0.68
U52A C95A	0.09
U52A C116U	1.18
U52A U143A	1.37
C51U U91A	0.84
U52A U91A	0.63
G55A A140G	0.17
A50U U104C	1.03
U52C A129G	1.23
G54U A121G	0.97
G54A U102C	0.33
C51U A65G	0.05
U52G G144A	1.34
U52C U96A	0.1
C51U A136G	1.34
G53U A142G	1.2
C51U U102C	0.41
G53U U62C	0.08
G53A G135U	0.82
G53A U96A	0.06
U52C G60A	0.03

Variant	self-cleavage
G53A A136G	1.71
U52C A77G	2.8
U52C A77U	1.07
G54A G75C	0.33
U52A G54C	0.43
G53A U102G	0.68
G53A U102A	1.3
U52A A141G	1.11
U52G A94U	0.42
G53U C99U	0.13
U52A A64G	0.31
G55A A57G	0.15
A50U U132C	1.05
G53U U143C	1.14
U52G U143C	1.99
U52G U143A	1.32
U52A A140U	1.57
U52C U119A	1.16
U52G G70A	0.42
G53A A57G	0.73
U52C C95G	0.09
G53A A129G	1.4
G53A A67G	0.38
U52G U85C	0.15

Variant	self-cleavage
G54U C90A	0.06
U52A A57G	0.89
U52A A57U	0.14
C51U U104C	1.62
U52A G80C	0.98
U52A G126C	1.81
C51U U52C	0.99
G54U U96C	0.07
U52C U109C	0.69
U52C U109A	1.6
U52C U130A	1.04
U52C U130C	1.84
G53A C128U	1.34
U52G A136U	1.1
U52G A136G	0.88
U52A C145U	1.6
U52C A59U	0.72
U52G U73A	1.74
G55C U115C	0.26
G54A U115A	0.64
G53U U119A	1.33
G55C A141G	0.55
U52C A140G	1.1
U52C A140U	1.15

Variant	self-cleavage
A50U C146U	1.07
G55A C63U	0.13
C51U C90A	0.01
G53U A78G	0.71
C51G C71U	1.5
G55C A107U	0.08
A50U U91A	0.34
U52A A121U	1.03
C51U U73A	1.48
G55A U104C	1.02
A50U A141U	0.68
A50U G144C	0.79
A50U G144A	1.37
C51U U100C	1.68
G54C A117U	1.23
U52A G82U	1.26
U52A G82A	1.63
G53U A77G	2.05
G53A U100C	1.09
U52C A78U	1.56
G53U U115C	1.91
U52C U134G	2.76
U52C U134C	1.01
U52A G55A	0.3

Variant	self-cleavage
G54A A67G	0.12
G54A G88A	0.08
U52A A69U	0.08
U52A U115C	1.42
U52A U115A	1.34
U52C G105A	1.17
U52A U73C	2.24
U52A U73A	1.63
C51A U73G	0.69
U52G A57G	0.82
G53A U115C	1.07
G53A U115A	1.31
A50U U109A	0.78
A50U U73C	2.09
C51A U62A	0.02
G54U U81A	0.39
G53A U108C	1.97
G54A G105U	0.7
G55A A121G	0.26
G54U U62A	0.02
C51A U108A	1.31
G53A U81C	0.67
G53U U85A	0.11
G54U G114U	0.74

Variant	self-cleavage
G54U U100C	0.22
G54U C84U	0.07
U52A C98U	0.12
U52A A136G	1.4
U52A G106C	1.84
G53A A64G	0.12
G53U A140C	0.8
G53A C61U	0.03
U52A U87A	0.08
U52A U87G	0.29
C51A A138G	1.44
G54U U119C	1.34
U52A A77U	1.03
G55A U134C	0.23
A50U C90U	0.05
G54U C71U	0.16
G53U	1.25
G53A	1.32
G53C	1.13
C51U A67G	0.5
U52A A79U	2.26
G55A A107G	0.22
U52A A92U	0.86
